Measured values published in the RNAGym collection of RNA variant scans (doi:10.1073/pnas.2313332121).
Fewer inactive variants are shown than the library holds.

B1: TPR 5TU (parent)
chain: GGAUCUUCUCGAUCUAACAAAAAAGACAAAUCUGCCACAAAGCUUGAGAGCAUCUUCGGAUGCAGAGGCGGCAGCCUUCGGUGGCGCGAUAGCGCCAACGUUCUCAACUAUGACACGCAAAACGCGUGCUCCGUUGAAUGGAGUUUAUCAUG

Variants of: B1
Test: polymerase ribozyme fitness, log enrichment relative to wild type (log ratio); higher = more active; in vitro selection for triplet polymerase activity
Procedure, shortened: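 Mutant libraries of both subunits of a heterodimeric triplet polymerase ribozyme were PCR-built, transcribed, and selected once in triplicate, with frozen incubation at −7 °C and capture of gel-excised extended constructs on streptavidin beads before RT-PCR. Illumina sequencing of input and output libraries was filtered to genotypes with ≥10 input reads and ≥1 read per output. Fitness is the logarithm of genotype enrichment over wild-type enrichment, using inverse-variance-weighted replicate averages. The logarithm is base 2.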

| Variant | polymerase ribozyme fitness (log ratio) |
| --- | --- |
| A39U G71C G84A C103U | ≤ -4.2 |
| A37C C95G | -2.69 |
| A41G C76A U77G G112A C116U A142C | ≤ -4.2 |
| G48A C57A G92A | -3.32 |
| A28G C93U U127C | ≤ -4.2 |
| A115C U145C | -2.43 |
| A24U U61A | -1.72 |
| C54A G58A A91U C95A | ≤ -4.2 |
| G50A A91U | ≤ -4.2 |
| A37C A49C G59C G83C C95A A122U G143U A150G | ≤ -4.2 |
| G86U | -1.62 |
| G94A G141C | -2.23 |
| A3G U4G C32U U56A G74A G81A A120G | -0.184 |
| U31C C57G C87U U102A G136A | -0.199 |
| G80U G84A G126C C132U U145A | -3.25 |
| A21C G141C | 1.03 |
| A37G U45A C76G U82G C93G A113C G136U | ≤ -4.2 |
| U127G A138G A142C | -3.48 |
| A73G C93U G141U | 0.326 |
| G11A A40C A49C G74C C85A C95G G100C A147U | ≤ -4.2 |
| A29G G59U A60U C114U | ≤ -4.2 |
| A17U A49G C85U C116A | -0.0919 |
| A17C G84C A142G | -3.21 |
| A47C G62U C99G G143U | ≤ -4.2 |

| Variant | polymerase ribozyme fitness (log ratio) |
| --- | --- |
| G83A A115G | -1.64 |
| C8A C93A | ≤ -4.2 |
| A12C A16G A41C A121U | -1.69 |
| G70A G86U | -3.77 |
| A22U A52G A91C U135G | ≤ -4.2 |
| G112U G141A U148G | ≤ -4.2 |
| C38U A73U | 0.0337 |
| C36U G58U G94A C105U C125U U135C | -3.89 |
| C38U G86A | -1.16 |
| A52U C57U G83C | -3.29 |
| U4C A21U C57G A60G C85A A89C G94A | -2.06 |
| U6G C99G G141C | -2.05 |
| A24C G42U U44G U61A G80C A110U | ≤ -4.2 |
| A16G G86A | -0.891 |
| C10U C14G A28U G58C U61C G70C C76G C96U A138G G140U C149G | ≤ -4.2 |
| C57A U127A | -3.56 |
| A49U G59A A115U A119C | -3.36 |
| A20C A29C C87G A122G G140U | ≤ -4.2 |
| U13C A17C G67C U77G A89C A120C | ≤ -4.2 |
| A26G A89U | -4.16 |
| A12C A16U C87G | ≤ -4.2 |
| C95U A98G | -1.9 |
| U77G G86U C93G C96A C118G U145G | ≤ -4.2 |
| A30C G67C G68A G88A C93A U135C G141C | ≤ -4.2 |

| Variant | polymerase ribozyme fitness (log ratio) |
| --- | --- |
| U33A G80A | -3.68 |
| C32G C54A C75U U77A C85U A106G U135C | ≤ -4.2 |
| U9C A16G U44G A49G A64G C105G G124A | ≤ -4.2 |
| A97U G124U | -1.05 |
| U53G A60G C87A | ≤ -4.2 |
| C93U G140U | -3.59 |
| G92C A142U | -2.07 |
| A97U U151G | ≤ -4.2 |
| A49G G94A U127C | -3.23 |
| C5U A37U C69U C95U | -1.02 |
| C72U C87U U101G G124C | -1.6 |
| C51G U53C G67C G86U U101G A138U | ≤ -4.2 |
| A41C C85U A122U G126C | -0.655 |
| A17G A39C A107U | ≤ -4.2 |
| U6G C57G C85U A98U | -1.17 |
| A21C U134A | -1.79 |
| A28G U53A | -3.62 |
| A49C G81A G112A C114U G128A G133A | ≤ -4.2 |
| C57U G126C | 0.553 |
| U56A G84A | -1.06 |
| A19G A47G G48A | -3.23 |
| G11A A19U U56G U82C G84U C95U | ≤ -4.2 |
| C57U A66C G92U C93A | ≤ -4.2 |
| C8U G83A | -2.94 |

| Variant | polymerase ribozyme fitness (log ratio) |
| --- | --- |
| U56A C76U | 0.105 |
| A41G A47U C51U A52C G88A G136U | ≤ -4.2 |
| C14G A22C A39C A52G C75G U82G G140U | ≤ -4.2 |
| U31A U90G | ≤ -4.2 |
| A60G G81A A97U C99U | -1.35 |
| A21G A47C C51U C87U U90G | ≤ -4.2 |
| C8U U15A G58U C69A C85A G124C | -3.61 |
| C54G G80U C103A | ≤ -4.2 |
| A28G U44G A91U C99U | ≤ -4.2 |
| C93A G136A | -1.14 |
| U135G U144G | -2.41 |
| C63A C87U G88A A115U | ≤ -4.2 |
| A16U G34U G71A G94A U102G U151A | ≤ -4.2 |
| G11A C43G U90C G94A | -4.13 |
| A22U C36A G83A U145A | ≤ -4.2 |
| G48C C69A C149U | -2.77 |
| U53G C54A C95U U104C A106U C118U C149G | ≤ -4.2 |
| A29G G58C A73U G92C A98G C125A | ≤ -4.2 |
| A21C A41U C57U A119U U134A U144A | -4.17 |
| C18U C93U G133U | ≤ -4.2 |
| U6A G68A G83C U90G C118U | ≤ -4.2 |
| A73G U145G | -0.0134 |
| A121G U134G | -2.56 |
| A17G A39C A40C A73G G94C U134G | ≤ -4.2 |

| Variant | polymerase ribozyme fitness (log ratio) |
| --- | --- |
| A29U U44C U45A C57A A64G C76A C95A A150C | ≤ -4.2 |
| C18U C132U U135A | -2.33 |
| G68U A73U G94A A119U | ≤ -4.2 |
| A3U U15G C51A G84U U151G | ≤ -4.2 |
| A21C U55G C93U G126U | -0.141 |
| U6C C10A A24U A110G | ≤ -4.2 |
| C18G C32U C43U A89C | ≤ -4.2 |
| A30C G62U U90G C95A G124A A138C U151C | ≤ -4.2 |
| A23G G92U | -3.31 |
| C51A C96A | -1.26 |
| A91C G126A | -4.03 |
| G59C G81U G83A G124A G141U | 0.692 |
| C38U C95G U102A | -2.51 |
| A24G A73G G86A G141U U145A A150U | ≤ -4.2 |
| G11A C54U U61A C95A C149G | ≤ -4.2 |
| A52U U55A | -1.7 |
| U6G G59A G92A C95A C105U | -4.19 |
| A30U A52G U53A U146G | ≤ -4.2 |
| U31G C35U A60U A115G | -3.22 |
| G92A G100C | -4.07 |
| A21U C43A U78G G84U C93U C103G A115G | ≤ -4.2 |
| C54A G67U | -4 |
| A30U G42A C85U A89G C99A A107C A122U C125A U144C C149A | ≤ -4.2 |
| C76A A122G | -0.466 |

| Variant | polymerase ribozyme fitness (log ratio) |
| --- | --- |
| A21G A98U C129A U144A | -3.61 |
| A73G U104C | -0.284 |
| A3U G84A | -1.14 |
| U7A A28G A40U A49C G50C C87A U144G | ≤ -4.2 |
| C87A U144C | ≤ -4.2 |
| C35U G50A C87G G124A | -3.99 |
| C35U A73G | -0.161 |
| A47C C57U G67C C69A A91U C149U | ≤ -4.2 |
| C35U C54A G84A U146C | -1 |
| U55A C57G C87G C93U U104G | ≤ -4.2 |
| C108U A142C | -3.43 |
| C54G C85U C96G G112C U130A A142G C149A | ≤ -4.2 |
| A20U G71A C95A | ≤ -4.2 |
| U45C C93A | -3.52 |
| G117A U144C | -2.9 |
| C36U C54A G65C G67U G68U C95G A110C A113U C116U G143C C149A | ≤ -4.2 |
| G50A C54U C85U C93U G94U G117A | -3.95 |
| U31G U56G C93G C96G G133C | ≤ -4.2 |
| U9G A37U C57U C85U G128A G141A U146A | ≤ -4.2 |
| C14G C87U C149A | ≤ -4.2 |
| U61A U90G U139C | ≤ -4.2 |
| G92A U127G | -3.27 |
| A24G A52G U55A C85U A150C | ≤ -4.2 |
| C51A G117U | -1.02 |

| Variant | polymerase ribozyme fitness (log ratio) |
| --- | --- |
| U55A G59U A60G G94A | -1.02 |
| A12G A30G | -2.97 |
| A3G A12C G62U G70C C79G G81A G84A A147C | ≤ -4.2 |
| G88C G143C | -3.92 |
| C32U U33G C38U C54U U77A A107U | -3.74 |
| A12C A17G U31G U44A C93U C99U A122C U134A A142G | ≤ -4.2 |
| A24C C54G C76U U78A C105A A147C | ≤ -4.2 |
| C93G U102G | ≤ -4.2 |
| A17U C18A C54U U55G C75U C95A | -1.89 |
| A28U A47C U130G | ≤ -4.2 |
| C95U G100U U104G C114U G141C A150C | ≤ -4.2 |
| A12C A29U A66G U101G C131G | ≤ -4.2 |
| C76U C87A | -3.85 |
| A12U G46C C69U | -3.08 |
| G84U A106U | -2.69 |
| A20G C27A A47G G92A | ≤ -4.2 |
| U44A A91G U135C U144C | ≤ -4.2 |
| A41C U56A C87U | -1.41 |
| A52U C95A C103G C116G G133U | ≤ -4.2 |
| A12U A20U G81A C87A C96A U102C C125U | ≤ -4.2 |
| A28G A91C G126A | ≤ -4.2 |
| C18G A26C C54A G62A C76G C87A A97C A150U | ≤ -4.2 |
| C72U A91U G92A U127G | ≤ -4.2 |
